# According to a protein production outcome set (Wang et al. 2014):
# Experiment: label from the status in PepcDB records
row,Sequence,protein production
1,MVLKAFFPTCCVSTDSGLLVGRWVPEQSSAVVLAVLHFPFIPIQVKQLLAQVRQASQVGVAVLGTWCHCRQEPEESLGRFLESLGAVFPHEPWLRLCRERGGTFWSCEATHRQAPTAPGAPGEDQVMLIFYDQRQVLLSQLHLPTVLPDRQAGATTASTGGLAAVFDTVARSEVLFRSDRFDEGPVRLSHWQSEGVEASILAELARRASGPICLLLASLLSLVSAVSACRVFKLWPLSFLGSKLSTCEQLRHRLEHLTLIFSTRKAENPAQLMRKANTVASVLLDVALGLMLLSWLHGRSRIGHLADALVPVADHVAEELQHLLQWLMGAPAGLKMNRALDQVLGRFFLYHIHLWISYIHLMSPFVEHILWHVGLSACLGLTVALSLLSDIIALLTFHIYCFYVYGARLYCLKIHGLSSLWRLFRGKKWNVLRQRVDSCSYDLDQLFIGTLLFTILLFLLPTTALYYLVFTLLRLLVVAVQGLIHLLVDLINSLPLYSLGLRLCRPYRLADKPTALQPRGAHLPPPQLWLPPQALLGRPVPQAVPWGAHLPLEAERGQAGLRELLARLAPPHGHSQPSALPGWHQLSWRMSCALWTLLCAPEHGRPCYHTLGLEVIGSEQMWGWPARLAALHHWHCLPWDPLPTCCGHHGGEHSNPRCPEHCPMPTLCTQVQRVRPPQQPQVEGWSPWGLPSGSALAVGVEGPCQDEPPSPRHPLAPSAEQHPASGGLKQSLTPVPSGPGPSLPEPHGVYLRMFPGEVAL,failed
2,RTEVVAVALDTSLEELKGRFVESGISKIIVYDGNIDNVVGYIHSSEMFRSPKDWRNHVKEVPIVPETMAAHKLMKLFMQQKKTIAVVVDEFGGTSGIVSLEDLVEEIFGDIEDEHDNTSYICKQIGE,not failed
3,MNDQVRLHYETWVYPRYPLAASVRRSDTYALSLDALYARFNGTLPPAAARRILLAGCGSFSPYPTAVANPGVPVTALDLSAANLRRARLHAWMHGRFGISFEQGDLMDPAAAQGEYGFIDSFGVIHHLADPLAGLRALERRLAPGGILRLMVYSRGARRVVESARRALRFAGVRDVARLKDLLRRSPPGSRLSHAVEASGEGGGDAGLADALLHPRARIFSIDELMAMVGETGLVPLRFAHSRALAEPGAEVVRLRGLEQAGEPVPNFVLYLGREPRGGCGLAPDALLMLNPALRHDVGVLRLAPLAVPPRLGLKNPVLGFADRRFLRRFSTPLPVSALTPTDRERVGPFLDALFVIPFR,failed
4,MDLNNNKSNNIVKTLARWCLLLQAFMISSNTVALKEPDYVNMNITIRNSMTGLIRPEIVYRCQSKRKDYGWHRSPKPGVQFSFPIILIKGETKIPAIHICQIRSVLGTATLVIQNTYLDAEMCPRSSCAHEATPKGIVFRGLEWDFKTVFPKLKPVEYLELPWTPWPNRT,failed
5,MAVLGQLGFMIAFLSGGVAAGHFGLLTERRTDILTTLVFTVALPALIFRSTYDRPLQEIISPALLGGFWVIIALTITLGWLVHRRLESADRRSVSVVQSYHSNMGFLGLPLVAATMGSEATAVASVILGIGAVTHVPVTVFLLVRINGSDASLLSECRKLVTNPVLIALAAGITASVLSLSVPESLISALGPPAELALPVALLCIGATLDTDLPVSDLQKTVSVVGLKVLWMPALAWLVYSSLSMDTTALGAAVVMLGTPTAVSTYVYTTELGGDAAFASLNVFTSTVVSIGTLSLLVWLFT,failed
6,IPTCKITLKETFLTSPEELYRVFTTQELVQAFTHAPATLEADRGGKFHMVDGNVSGEFTDLVPEKHIVMKWRFKSWPEGHFATITLTFIDKNGETELCMEGRGIPAPEEERTRQGWQRYYFEGIKQTFGYGA,not failed
7,MISMPKEKVVIIIPTYNEEDNISNTIDLILKETYSLADYQVDILVFDSHSTDSTAHIVRELTYTSQRIHFAQEPQKTGLGSAYLQAMRIAIDELNADVVFEFDADGSHQPCYIAPMLELLKQHDVVVGSRYISGGRIPSNWAFHRKLLSVGGNWVARMLLTGKYKDLTSGLRAIRTNLLKKLLPSNFLSNNYAYKLELYWLLHKAKARIVEFPIQFIDREKGKSKLPKNSMIDTLRVLFTLRFRELRQYLTMCCVGSIGALIQFSLYNWLRSSNHSALVSSQVAISAAIISNFIFHHSITFKQKTDFRITKTTFSRFTQFIIYSTFMVYFQSLWVHIFVHSFGQGVLKENIIVASGLGIGSIINYLFYSNIIWSSKGTHSLNSNSSKETQI,failed
8,MEATKERMEKDQKKRVVTNEAGKAEDNTIRTIIRESIVEDRGSNDDDGNKDNDHGASKPEDILAFSRTVRKIDSSLE,failed
9,MRKKEENLNTASGLRIAMILLGIAVTPVLLSSSSLGNQLSSSSLISVVLLGGVILTLLSAITISVGEKARLPTYGIVKYSFGEKGAIAINILMAISLFGWIAVTANMFGHSVHDLLAQHGLEVPLALLVAAGCVIFVASTAFGFTVLGKIAQVAVPVIALVLCYILYVATHTEVAVPAAIVEMNTGVAVSTVVGTIIVLVATLPDFGSFVHNRKHALIAAGVTFLVAYPLLYWAGATPSAISGQGSLLGAMAVFGAVLPAALLLIFACVTGNAGNMFQGTLVVSTLLTRFPKWQITVALGILSAIVGSMDIMAWFIPFLLFLGIATPPVAGIYIADFFLYRRNGYQESVLAQESQIKVLTFAAWIIGAAVGFMTVKGLFTLTTIPSVDSILVACIAYAILSRASQHR,failed
10,MPDKKREVSLSHRLQEVASFVPKGARLLDVGSDHAYLPIYLLEQGLIDFAVAGEIIKGPYESAVANVSESELSGQIAVRLADGLAALNDNDDIDLITICGMGGRLIADILAAGSDKLNSVKQLILQPNNCEDDLRSWLVANDFMIKAEKMVKDRHKYYEILVVEKGKITLSDKDLRFGPFLRQERSSIFKERWRKELAKLELALTKVPAKKKADNMFLSTKIEQIKEVLYES,not failed
11,MEISLLQAFALGIIAFIAGLDMFNGLTHMHRPVVLGPLVGLVLGDLHTGILTGDTLELVWMGLAPLAGAQPPNVIIGTIVGTAFAITTGVKPDVAVGVAVPFAVAVQMGITFLFSVMSGVMSRCDRMAENADTRGIERVNYLALLALGTFYFLCAFLPIYFGAEHAKTIIDVLPQRLIDGLGVAGGIMPAIGFAVLLKIMMKNVYIPYFILGFVAATWLKLPVLAIAAAALAMALIDLLRKSPEPTQPAAQKEEFEDGI,failed
12,MSLCRWAAYHGTPIFLEDVISRPGHSLIAQSAHAEECKTATNGDGFGVAWYDARPEPGLYRDVYPAWSDPNLRAVAHHVRSGLFLSHVRASTGSCISRNNCHPFAARRWCFMHNGQVGGFEAFRKQADMAIADEFYTYRKGSTDSEVLFLLALSEGLEHDPHGALARAIARLEGLSRAHGTTPHMRLSAAFSDGQTLYAARYSSDHIAPSVYYRYSHARQGWAVVSEPLETDEGDWTELRPGRMLTIGAEGAAERDFAPADLGRAAEGHHHHHH,not failed
13,MLRKKHFSWMLVILILIAVLSFIKLPYYITKPGEATELASLIKVEGGYPEKGSLSLMTVKVGPANPFTYVWAKMHPYYEIVPDESIKEEGESDKEYMKRQLQMMKSSQENAVIAAYQKAGKKVSYSFNGIYASSVVENMPAKGKIEVGDKIISADGKNYQSAEKLIDYISSKKAGDKVTLKIEREEKEKRVTLTLKQFPDEPDRAGIGVSLYTDRNVKVEPDIDFEIENIGGPSAGLMMSLEIYNQLTKPDETKGYDIAGTGTIDVDGKVGPIGGIDQKVVAADKAGKDIFFAPNQNGASNSDYKNAVKTAKDIDSNMKIVPVDTMQDAIDYLNKLKAKQPDSQVLFLYI,failed
14,MKMDTGALTFQQKIYWLVKQIPLGRVATYGQIAALCGWPRHGRYVGYALYRVAPNSDIPWHRVVNAQGKISYAPQRRGTDELQRWRLAAEGIIFTAGLEHHHHHH,failed
15,MLSKIVDINAARQNIDMKVKLLSLNKRTIKNDRGETVYYYGIIGDETGTVPFTAWTFPPAVRVGDVIEIRSCYSNIYNGKIRIYIDGRSEVILKPDVEMEVKRSSDLVKIRDVSLSTPYVSVIGKITGIHKKEYESDGTTKSVYQGYIEDDTARIRISSFGKQLQDSDVVRIDNARVAQFNGYLSLSVGDSSRIESVNVNIPEKPRHIFISEIRSPVGGITIVGFVVSVGQGSRIFTKCSVCRRIVEDGTCKDHPKAPVYPDIFGYFSISDGTGTITCYINSDSFLPYAGISQDQFRRDAYSMNPNSLIKKNLLGKCISVSGDLRSQDDRIVMNVQSMKAISAEDNREIESIIEEEFQ,failed
16,MTSFEDADTEETVTCLQMTVYHPGQLQCGIFQSISFNREKLPSSEVVKFGRNSNICHYTFQDKQVSRVQFSLQLFKKFNSSVLSFEIKNMSKKTNLIVDSRELGYLNKMDLPYRCMVRFGEYQFLMEKEDGESLEFFETQFILSPRSLLQENNWPPHRPIPEYGTYSLCSSQSSSPTEMDENES,failed
17,MKHIFRFKNYFFHSKNNQLKRLLLVAFLLTGLWLTPQQGRVWGQEQPFVVKKIDLSQYGAAASIAQDPESKQLAIGFYNCNLIFLDANLNQDQKNNLFLKNCKRFFRARYGEFGSIPFLISSIYTGSSVLHNSQENFDIPLHKAAVTDSLILQDYLLSSSDDGSVTISRLISLSPPEVNTFKLYQSIGVARNLAFTHTSNPEVGKVAVSYDTGEIAIFNIDHDTARNPVEPSTFKTINSRINTFKFTPDGAKLLIGYFTGELVELDLATGAHKTLAKVNSWLNALDINSENLVAIADDQGFVKIISLTTGKIVEEHKISTTGINAVIFTDDQTVVAADATGMIYQGKLAGSN,failed
18,MCIAIPGKMTAIVDENTATIDMGGICRDVNMALMGGAEESMIGKHFLVHVGYAISEISEEESEETMRLLKIMAGLEEIDSFE,not failed
19,MMRRQASVLLLVSMVSATVLPVFARAPGEREPSCAATSIVLPAGARYPNGIAHAADGTLYVGLVTSGRILRKPPGGEWETFFAGSPAIFAATALRLDEPRGLLWGNSPDFLPAGRRRPHGVFALDLASGAVRRYLTLPGDGMGNDLAVAPDGTVYLSETRDGSLMRLRPGEPAFQVLLRDSRLAGPGGLGAAGIVRVDDDTLLVGNFGSGAIHVVEGVATRPRLREMELPRTLENPDGMALAPDGSLIVLENAIRSGAGKVLRIAEPLAPGRRGIEVIREGLESPVNLTVTGQGCAYVSESRIRHRLLPGREGEVPARFLIHRLPLDAAGGR,failed
20,MPLVNSHIVEECLPFTSLRLDPEDINLSMGAGYVPDAEIQAISDALETEIAGICTPRFLYALFDAEPAGTCEVGVNGISLKTGSVITPYLKDAAGYVLFVATAGYEFEAFQHRIGSQGDILREFLLDAYGSAIAEAVVREVCRKVESRMFPLGYGVSHPYSPGYCGWHVTQQQLLFSCLPEFPCGVRLSDSSLMSPIKSVSGIIAYGPCIVKRKYGCELCGKADCYKNRNKLNRLEHHHHHH,not failed
21,MGVNSQKSQGEDVSPDSNIETKEGTYVGLADTHTIEVTVDNEPVSLDITEESTSDLDKFNSGDKVTITYEKNDEGQLLLKDIERANLEHHHHHH,failed
22,MNIYDQLQAVEDRYEELGELLSDPDVVSDTKRFMELSREEANSRETVAVYREYKQVVQNIADAQEMIKDASGDPELEEMAKEELKNSKVAKEEYEEKLRFLLLPKDPNDDKNIILEIRGAAGGDEAALFAGDLLNMYQKYAENQGWKFEVMEASANGVGGLKEVVAMVSGQSVYSKLKYESGAHRVQRVPVTESQGRVHTSTATVLVMPEVEEVEYEIDPKDLRVDIYHASGAGGQNVNKVATAVRIIHLPTNIKVEMQEERTQQKNRDKAMKIIRARVADHFAQIAQDEQDAERKSTVGTGDRSERIRTYNFPQNRVTDHRIGLTLQKLDSILSGKLDEVIDALILYDQTQKLEELNK,not failed
23,MGTIGAAGCTVNRFAVALMPDSGGHPRKPIAGVDAPPPHLLLVARRMTRPGEHMALTTYTPVITVFAAGREWTLERAADLQTLWDNMVEADFGDDERLPYWTELWPSSLVLADWLHDNAGRIRGRTCLDMGCGLGLCSLVGQWLGARVTGMDYEPEALFHARRNAERNRVPQPLWTVMDWRAPAVRRHAADLVWGGDIMYERRFVTPVLDFLDHVLAPCGAAWVAEPGRTVYNHFRETLDARGWHARRVLSSETASLYEQPESVTVHLWEITRLEHHHHHH,failed
